A short description of this data set: label from the status in PepcDB records.

As to “MAAILISLIGKYGMNGIFIATFMAGIFLLLAGIFRLGNLISLIPSPVITGFTSGIAIIIASGQIKNFFGIEHFTGSFFDLMKFISGLHIDYPSTIIGLLTILLMIFYPKSWGKKFPASLLAILLSTLAVLALKLDIPLVGKIPTTLIPQAHLRLTELNPQDMKTLLIPAISITVLGMTESLLCGASAGRATNHPMDNNQELVAQGIGNIFIPFFGGIPATAAIARTSVAIKAGAQTRLTGIIHALILLLSMFLFAPFMTHIPLSALAGVLIMTAVRMNEWEAIRFLFKNKLKSGIIEFFVTMIITVIFDLSTAILAGIVVGFLLFIVKISQIEINSSQIEPERISQNHHEVFTDWTVIYISGPLFFLNSSKLKQAIDELPANTNAVLSLRGVPMIDVTSIKLLIDIYSIFHKEERQIVFASMNPKLKESFKRTGLISMVGEEAIYPSVNEFLLDLVDKNK”, the protein production entry is given as “failed”.
To “MAAKKPLFEVIASKIKDSINRDEYKTGMLMPNETALQEIYSSSRTTIRRAVDLLVEEGLVVRKNGVGLYVQPKLTAQNILEMTGVMKNDTNENLKKDIKDFYIRKAGKFYAEIFGMKENELVYSIKFVQKSEHGATLDRLILPLGLYPDLQAKDFQIINIIELVNSGKYKLFELEQELQLILAGNEQIKNMHLNENDPVFKLSSVFYAENDMPIAIQYHYEDAESTKYVVDFN” belongs “not failed”; to “MAAKTMDFAGPAVSTGLGGLGPTRVSGAALMATLLFLGAPLLFAGNMLAARMMQGVLPPFTLASARWALAALVLLPFVRRELFGQRRAAPGRWRALVLPAVLGGALSVGPQYWAAHFTSAGNIALVFAMTPLLVALLDRLAGGARLGAPALAGMGLAIAGIATASFQGSLARLLAFQINPGDLLAGLAALAWAGYTVATRRPRAGLSGLALLWGVAAGGALTLAPAAAVEWLVLGVPSLSREAVLGVAFLAIVPSIGAYLAYGRLIGLVGPVVAGTSMYLIPLYALALGAMVLGEALGRYHLAAAALVIGGVALSRWRGAAKVCG”, “failed”.
In the case of “MAAKTMRKAEELVEKAMKGNDASHDAWHVWRVRDLALSIAREEGLSSNSDSMEIVELAALLHDIGDYKYIRDPSEEKLVENFLDDEGIEETKKTKILTIINGMGFKDELAGVALCESLPEFGVVQDADRLDAIGAIGIARCFTFGGSRNRVLHDPEIKPRTELTKEQYIKREEQTTINHFHEKLLKLKKLMKTEAGKRRAEKRHKFMEEYLKEFYEEWDGST”, the protein production result is “failed”.
The same measure for “MAALGLGTYGAHVFKPENPSYKQVWQTASLYHLVHTAALVSAPSTKYPNIFGGLLTAGIVAFSGTCYMVALREDRKFSTLAPFGGFAFIAAWATLLF”: “failed”; for “MAAPLCVKVEFGGGAELLFDGVKKHQVALPGQEEPWDIRNLLVWIKKNLLKERPELFIQGDSVRPGILVLINDADWELLGELDYQLQDQDSILFISTLHGG”: “not failed”; for “MAARRFTGDELAALLPHAGDAFFLRDAEVDGWRASGGASWRSDHPHLRGHFPGEPIVPGVYLLEAAAQLAGVAIRCGAEDWTPETLGVLAGVRKSYFHRFVRPGERVDYALDVKPAPGSAMYAVSGLGKVDGDKVLTVELTIAGVRRLEHHHHHH”: “failed”.
With “MAASFAFLRDIRPYKTSWRIQVKVFHSWRQYTSMTGETLELVLVDAHGVKIHASVKKDLVSNFVNNLLLNEWRFIETFALNHASGQFRPTGHLYKMTFVTGTQCILLDVMGQVVDIGELETLEAKNKPTIKLDFELRDDTDERMSCTLWGAFAQSVFSACEFADGQMVICVLRFAKIKSYKGVRSFSNSFYASQVHINPDFPEVQAFVSRVPKFHMVTVKQDDDCKQYERKSIRDFLHSMEVRVVCTIYALDTDWSWYYFSCRNCNKKVTHIHAGVNTTSLKSSKPRFWCDVCKNGVTNVQAK”, the protein production result was “failed”.
As for “MAASSPDSYISRRPYVTMGLTVAGVLVLVVATQLVEVLFTVFAGILLAVFLAGVTQELTEDTRLPRPLAVALTLIGLGGVLVGLWALAGPDISEQASALATLLPDAAERLASRIRTTVQRYGWMQRYVDPSQLLPPVSSVLGRVTNVFRDTLNLLVNGFIILFIGIYGGAAPQSYLDGVVQLVPPSSRPRARDVLSALGRALRWWLTGRLILMLIVGVLTAVGLKVVGIPSPIALGLLAALFSFVPYLGPVLSVLPALLVASLIGPTEVLYVILVYGAVQLLESYLISPLVQQQAVHIPPATVITAQFIGGVSAGAGGVLLATPFAIVVIVLVQTLYVEDVLGDEVSLLGEH”, the protein production entry is recorded as “failed”.

These data come from a protein production outcome set (Wang et al. 2014).
